Assay [1] addresses T1, WT-CHIPS (CHIPS 1-121), CHemotaxis Inhibitory Protein from Staphylococcus aureus (Staphylococcus aureus (strain Newman), UniProt A6QIG7 29-149).
T1 construct: mature
Put plainly: flow cytometry, 3 ug/ml CHIPS-FITC on HEK-293 cells displaying the C5aR N-terminus (pDISPLAY). A general note: Flow cytometry measures light scatter and fluorescence of single cells or particles in a stream.

The target of assay [2] is T1, WT-CHIPS (CHIPS 1-121), CHemotaxis …. The assay is described as follows: flow cytometry, 3 ug/ml CHIPS-FITC on HEK-293 cells expressing FLAG-tagged C5aR (pcDNA3.1).

B1: C5aR N-terminus (first 38 amino acids of the human C5aR) displayed on HEK293 cells with the pDISPLAY vector (receptor)
chain: MNSFNYTTPDYGHYDDKDTLDLNTPVDKTSNTLRVPDI
notes: domain: transmembrane domain; also called C5aR N-terminal protein; pDISPLAY C5aR N-terminal protein
Turning to B1, the binding result in assay [1] is “binds”.

B2: FLAG-tagged complete human C5aR expressed on HEK293 cells (pcDNA3.1) (receptor)
chain: MDYKDDDDKNSFNYTTPDYGHYDDKDTLDLNTPVDKTSNTLRVPDILALVIFAVVFLVGVLGNALVVWVTAFEAKRTINAIWFLNLAVADFLSCLALPILFTSIVQHHHWPFGGAACSILPSLILLNMYASILLLATISADRFLLVFKPIWCQNFRGAGLAWIACAVAWGLALLLTIPSFLYRVVREEYFPPKVLCGVDYSHDKRRERAVAIVRLVLGFLWPLLTLTICYTFILLRTWSRRATRSTKTLKVVVAVVASFFIFWLPYQVTGIMMSFLEPSSPTFLLLNKLDSLCVSFAYINCCINPIIYVVAGQGFQGRLRKSLPSLLRNVLTEESVVRESKSFTRSTVDTMAQKTQAV
notes: also called whole C5aR; complete C5aR
B2: the binding result in assay [2] is “binds”.
